Assay: soluble on expression in E. coli; label from the status in PepcDB or PDB records
In the case of “MSHLYDPTTQYYTGEYPKQKQPAPGVQAKMTPVPDCGEKSYVGSGRLKDRKALVTGGDSGIGRAAAIAYAREGADVAINYLPAEEEDAQQVKALIEECGRKAVLLPGDLSDESFARSLVHKAREALGGLDILALVAGKQTAIPEIKDLTSEQFQQTFAVNVFALFWITQEAIPLLPKGASIITTSSIQAYQPSPHLLDYAATKAAILNYSRGLAKQVAEKGIRVNIVAPGPIWTALQISGGQTQDKIPQFGQQTPMKRAGQPAELAPVYVYLASQESSYVTAEVHGVCGGEHLG”, the “soluble on expression in E. coli” value is reported as “not soluble”. In the case of “MSHPWRSRGEKRTIMFGYTPSDTILKYLKDMRDLINRAILNAYSIARSNDDSLPSPITLRRSLKDYYDNNVAYAKHHINPVCRTAIAMLRSYKKNNGRLKVVKAKRLAMRIDSELAKIEDNRLRITIRPNVYEYVDIVDRNKKYSEYSKYPISEVLLTDNRVYITFITGSDDKPVIANNIIGFDLNFKSVDYTVIKDNRIAYVDSIDTYDIAKTQRDYERKRRKIQKHIRNPAKRIRKLKEAKHRQRNIVRDKLQKLTTNIVKNNEDKTFVFEDLTNIKKKGKKHKDHKRDGQSSKRFRTDINRWPYRLFQMFVEYKSKNETLYVDPEGTSSECPVCGGILEHPIWKMSKCDNCGATFDRDRLSSLSIAVRGLHLCGTPFSVSGSASWDSMKDNYLYR”, the “soluble on expression in E. coli” value is reported as “not soluble”. With “MSHRKALLIHNGNAANKNIEKALGAVVPVLSHHLDEVIIKQTKKKDHAYHFCRSIDDSVDTVFILGGDGTIHQCINAISALERKPAVGILPGGTSNDFSRVLGIPQNLAKAAEALMAGKKTSVDVCQMNDRYFLNFWGIGLIAETSNQINETEKALLGKISYFTSALRTVSSAASFPMTLKIDGEEIKEEAVMLLVMNGQYIGTNRIPLPDASIEDGLLDVLICRNTNLTALRELMSMEQGSIDRFTGELSYVQASRIEIETDTAKKADMDGEVYTHTPAVIQVLPQHIDMLVPANE” the “soluble on expression in E. coli” value was “soluble”. With “MSIEQTLSQYLPSHPKPQGVTFTYGTAGFRMKADKLDYVTFTVGIIASLRSKYLQGKTVGVMITASHNPPEDNGVKVVDPLGSMLESSWEKYATDLANASPSPSNDSEGEKNSLVEVIKNLVSDLKIDLSIPANVVIARDSRESSPALSMATIDGFQSVPNTKYQDFGLFTTPELHYVTRTLNDPDFGKPTEDGYYSKLAKSFQEIYTICESNNEKIDITIDAANGVGAPKIQELLEKYLHKEISFTVVNGDYKQPNLLNFDCGADYVKTNQKLPKNVKPVNNKLYASFDGDADRLICYYQNNDNKFKLLDGDKLSTLFALFLQQLFKQIDPTKISLNIGVVQTAYANGSSTKYVEDVLKIPVRCTPTGVKHLHHEAENFDIGVYFEANGHGTVIFNPEAEKKIFDYKPNNDNEAKAIKVLQNFSQLINQTVGDAISDLLAVLIVVHYLKLSPSDWDNEYTDLPNKLVKVIVPDRSIFKTTNAERTLVEPKGMQDEIDKLVAQYPNGRSFVRASGTEDAVRVYAEADTQNNVEELSKAVSELVK” the “soluble on expression in E. coli” value was “soluble”. For “MSIETFTPTPLLFTPGAANKVKTLIDEEGNPRLKLRVFVTGGGCSGFQYGFTFDEDIADDDTVIERDGVGLVVDPMSFQYLAGSEVDYQEGLEGSRFVIKNPNAATTCGCGQSFSI”, the “soluble on expression in E. coli” value was “not soluble”. In the case of “MSIKLFSLAKELNVGVGSLAGFLRKKGFDVEDNNPNVRIENEEFDLLLTEFGKSLPKGEAERIRKKFVKQKQGTPASAPSAKEETAGMAAKEAQVIATEVPQDMRPRFTIKGKVETEKPAEPVPSPKDKEPDTVREDKPARETAPVKEETKVVPVKEDKPKEEKPKQEEPKREEPKPEEPVQAAPVAKPVEKPVDKPQQPVMTQKPQEAETPPPAQEMEKKEDTEEVFRLKTNTQEPQVKVVGKIDLSSINSSTRPKKKTKEDRQREQNDADGKKKRKRINKAAVDVKKEAAKVSGEQGKRNAGGGNHSSGNKNNNRPAQQQSNASGGRKNNKRQSLPPKVEISDEDVQRQVKETLARLTTKKTSTTLGRGAKYRKDKRDAASRAAQDAMELNSEEQHTLKLTEFVTVSDLSNMMDVPVNEVIATCMSIGMMVGINQRLDAETINIVAEEFGFKTEFVSADLVEAIAPEEDNEEDLVA”, the “soluble on expression in E. coli” value is reported as “not soluble”. In the case of “MSILQKLENSAAAAVKALYGTDPMEGQIQLQKTKREFKGHLTLVVFPFVKMSRKSPEATATEIGEWLLANESAVSAIEVVKGFLNLTIAPRVWLELLNEIRADINFGHKVATEDSPLVMVEYSSPNTNKPLHLGHVRNNLLGYSLSEIMKANGYRVVKTNIVNDRGIHICKSMLAWQKWGDGVTPEKAGKKGDHLIGDFYVLFDKHYKAELNSLMAEGKSKEEAEAASTLMAEAREMLRLWEAGDEKVVDLWRTMNQWVYDGFDATYKMMGVDFDKIYYESETYLVGKEEVLRGLEEGLFVKHSDGSVWADLTKDGLDEKLLLRADGTSVYMTQDIGTAKMRFNDYPINRMIYVVGNEQNYHFQVLSILLDRLGFEFGKGLVHFSYGMVELPEGKMKSREGTVVDADDLMDEMIRTAAEIAAEAGKAAEMDEEESREVARIVGLGSLKYFILKVDPRKNMTFNPKESIDFNGNTGSFVQYTYARIRSLMRRAEAAGYDIPSQLPTDLPLSEKEEALIQKVSEYAEVVSEAGHSYSPALIANYIYDLVKEYNQFYHDFSVLKEEDERIRAFRLALSEVVALTMRKGFALLGIEMPERM”, the “soluble on expression in E. coli” value is reported as “not soluble”. In the case of “MSIQRFTPEFKAEAVRQVIERGYSVAEIAAGFGVSTHSLYKWVKAVTPDKSEKQASELLEAKSEILRLRAQMRRLEEERDILKKPSGSSHTAWRPLEHHHHHH”, the “soluble on expression in E. coli” value is reported as “not soluble”. For “MSISTEQTILTQLKTIRTKRASTTGEQKWLQQHITEANLRRLLPDISIVGLHLLSELEAGPQTGIDLATNLGVTRGGVTRAAKRLVTQGLIGSFQQPDDHKKIFYRLTPSGRKLARYHDKMHATRNHQAITLLHEHYSPAELAVIQRFLADLTDYEA”, the “soluble on expression in E. coli” value was “not soluble”. With “MSKATYKERAATHPSPVAAKLFNIMHEKQTNLCASLDVRTTKELLELVEALGPKICLLKTHVDILTDFSMEGTVKPLKALSAKYNFLLFENRKFADIGNTVKLQYSAGVYRIAEWADITNAHGVVGPGIVSGLKQAAEEVTKEPRGLLMLAELSCKGSLATGEYTKGTVDIAKSDKDFVIGFIAQRDMGGRDEGYDWLIMTPGVGLDDKGDALGQQYRTVDDVVSTGSDIIIVGRGLFAKGRDAKVEGERYRKAGWEAYLRRCGQQN” the “soluble on expression in E. coli” value was “soluble”. With “MSKCSADETPVCCCMDVGTIMDNSDCTASYSRVFATRAEAEETLAALTEKARSVESEPCQITPTFTEESEGVRLDIDFVFACEAETLIFQLGLRLEHHHHHH” the “soluble on expression in E. coli” value was “not soluble”. In the case of “MSKDVSIGWMYEGAKGNVHREDYLLGKKVDKNFEKYSDVVNAQKAEAIDSIVGTRAVFNSGQSTGLKTSSLQKDIIKSEDPFVAVKVREETKRREIMDNPLTKMRLQAALKSMMTSKAEKSKEKKSKKDKKKKKKKRSSSSSDESSDERVERKRRRSPSPKRRRRPSEKPRKRSRSPRRERPRSPKRSREESRKLSRKPSSSRSKSPRRSREDPRKVARKPSRSRSRSAERLRRKSRSPRRSREEPRKMSRSRSRSADKASSSRQFDSHIPRHLQQQRSRHDSSSGSESEHETRSSHRRRNSDDDERQDPRKKSYGLVEMRKRTAEEREEESRAPTKEYKLVKIPTGRGTGNTPREPRRALSEAEKAARLAEMQQDNVKWRDEIRERNVTKGRKEDDEEKEEADKNGYAPSFIRSQMREACDDMTVEKRLQSNKRGVQRAHGYMDRSFAKK”, the “soluble on expression in E. coli” value is reported as “not soluble”. In the case of “MSKGMFSASQSGFSTIEVYDLGPLNKIDLSIAKAGLEDTGGTVTFSVEQSLLDSLNNADGTSYQLLPPECYTIENATYSVSPGGDRRVTGGSLVYDPHKIYNLCGFDELKYVLPLRVSSTGTPMNSDRTATLYGFIVKEAIVRLASTGGDFVVEGGTTTSPMNLDTEISFENEWDLTTSFATKGADYVDNYNSANSTYYIPLPSDFYTLPDVTIAKGKTTGGSAISLLGETLPPGNYLLPVSLGGLSGQGDASINIDKETVANYFVIKQGGPINRDHWTVTANTEEKTGEVSAAYPHNGQTISLIDGEINTFWHSKWQGGEVAPPYEIILDMGKENSVSQLGLIARQNALTSMNLEIYAGDDGETWNLIGKYFFDGSIKTEQMVPVKACDARWIRIYIPTLGSGSSVGHLAEIYVYGTDKLEHHHHHH”, the “soluble on expression in E. coli” value is reported as “soluble”. In the case of “MSKKFNGKVCLVTGAGGNIGLATALRLAEEGTAIALLDMNREALEKAEASVREKGVEARSYVCDVTSEEAVIGTVDSVVRDFGKIDFLFNNAGYQGAFAPVQDYPSDDFARVLTINVTGAFHVLKAVSRQMITQNYGRIVNTASMAGVKGPPNMAAYGTSKGAIIALTETAALDLAPYNIRVNAISPGYMGPGFMWERQVELQAKVGSQYFSTDPKVVAQQMIGSVPMRRYGDINEIPGVVAFLLGDDSSFMTGVNLPIAGG”, the “soluble on expression in E. coli” value is reported as “soluble”. In the case of “MSKKVLIITGDAVEALEVYYPYYRLLEEGHDVTIAAPKKKKLHTVVHDFADWDTYVEKQGYLIDAHASFAEVDPAQYDALVIPGGRAPEYIRLDENVQRIVRHFFEANKPIAAICHASLIFETMPDLLKGRSLTAYIACKPGVEALGATYVSDNTVHVDGNLVSAHAWPDLPAFMREFLRLLQ”, the “soluble on expression in E. coli” value is reported as “soluble”. In the case of “MSKLIEYDETARRAMEVGMDKLADTVRVTLGPRGRHVVLAKAFGGPTVTNDGVTVAREIELEDPFEDLGAQLVKSVATKTNDVAGDGTTTATILAQALIKGGLRLVAAGVNPIALGVGIGKAADAVSEALLASATPVSGKTGIAQVATVSSRDEQIGDLVGEAMSKVGHDGVVSVEESSTLGTELEFTEGIGFDKGFLSAYFVTDFDNQQAVLEDALILLHQDKISSLPDLLPLLEKVAGTGKPLLIVAEDVEGEALATLVVNAIRKTLKAVAVKGPYFGDRRKAFLEDLAVVTGGQVVNPDAGMVLREVGLEVLGSARRVVVSKDDTVIVDGGGTAEAVANRAKHLRAEIDKSDSDWDREKLGERLAKLAGGVAVIKVGAATETALKERKESVEDAVAAAKAAVEEGIVPGGGASLIHQARKALTELRASLTGDEVLGVDVFSEALAAPLFWIAANAGLDGSVVVNKVSELPAGHGLNVNTLSYGDLAADGVIDPVKVTRSAVLNASSVARMVLTTETVVVDKPAKAEDHDHHHGHAH”, the “soluble on expression in E. coli” value is reported as “soluble”. For “MSKNIGLNAIEMSYLRQSLSLSAAQVGQLTNHSEAEVLAWENAETQAPELAQKKLLDIDDIIEMQVLNTTDGIEALFKKEPKRHLAFVVYPTQAIYTQYNPEFLSSLPLTELYNTAAWRIKKECKLVLEVDVSLINLNVEAYKAYREQNGLSESRESRAKWAATQL”, the “soluble on expression in E. coli” value was “soluble”. With “MSKNYHIAVLPGDGIGPEVMAQALKVMDAVRSRFDMRITTSHYDVGGIAIDNHGHPLPKATVEGCEQADAILFGSVGGPKWENLPPESQPERGALLPLRKHFKLFSNLRPAKLYQGLEAFCPLRADIAANGFDILCVRELTGGIYFGQPKGREGSGQYEKAFDTEVYHRFEIERIARIAFESARKRRRKVTSIDKANVLQSSILWREIVNDVAKTYPDVELAHMYIDNATMQLIKDPSQFDVLLCSNLFGDILSDECAMITGSMGMLPSASLNEQGFGLYEPAGGSAPDIAGKNIANPIAQILSLALLLRYSLDANDAATAIEQAINRALEEGVRTGDLARGAAAVSTDEMGDIIARYVAEGV” the “soluble on expression in E. coli” value was “soluble”. For “MSKQTAIRLPDETYERLKALSERTGRTSAYYIREAIEKHIEDMEDLYLAEEATRRIQRGESKIISAEEFWRDLDN”, the “soluble on expression in E. coli” value was “not soluble”.

Source: the DeepSol protein solubility set
